Experimental data from paper PMC7867188, “Biosensor-Based Directed Evolution of Methanol Dehydrogenase from Lysinibacillus xylanilyticus” (International Journal of Molecular Sciences, 2021).

B1: Lxmdh (methanol dehydrogenase, Mdh, NAD-dependent) (Lysinibacillus xylanilyticus) (protein)
chain: MSDVLKQFVMPKTNLFGPGAIQEVGTRLNDLEVKKTLIVTDEGLHKLGLSEQIANIITAAGIDVAIFPKAEPNPTDQNIEDGIAVYHAENCDSIVSLGGGSAHDAAKGIGLIASNGGRIHDYEGVDKSQNPLVPLIAINTTAGTASEMTRFTIITDTARKVKMAIVDKHVTPLLSINDPELMIGLPPALTAATGLDALTHAIESFVSTNATPITDACAEKVLQLVPEYLPRAYANGADLEAREQMVYAQFLAGMAFNNASLGYVHAIAHQLGGFYNLPHGVCNAILLPHVCRFNLTARTERFARIAELLGENVEALSKRDAAEKAIVAIENLSRDLNIPSGFRELGAKDEDIEILAKNAMLDVCAATNPRKATLEEIKQIITNAMGPVAKKEESLEAVALS
notes: His-tagged (pET28a; cloning primers indicate N-terminal His/thrombin tag and native stop), expressed in E. coli, Ni-NTA purified; cloning primers encode N-terminus MSDVLK and C-terminus KAVALS
B2: Lxmdh (methanol dehydrogenase, Mdh, NAD-dependent) (Lysinibacillus xylanilyticus; E396V) (protein)
chain: MSDVLKQFVMPKTNLFGPGAIQEVGTRLNDLEVKKTLIVTDEGLHKLGLSEQIANIITAAGIDVAIFPKAEPNPTDQNIEDGIAVYHAENCDSIVSLGGGSAHDAAKGIGLIASNGGRIHDYEGVDKSQNPLVPLIAINTTAGTASEMTRFTIITDTARKVKMAIVDKHVTPLLSINDPELMIGLPPALTAATGLDALTHAIESFVSTNATPITDACAEKVLQLVPEYLPRAYANGADLEAREQMVYAQFLAGMAFNNASLGYVHAIAHQLGGFYNLPHGVCNAILLPHVCRFNLTARTERFARIAELLGENVEALSKRDAAEKAIVAIENLSRDLNIPSGFRELGAKDEDIEILAKNAMLDVCAATNPRKATLEEIKQIITNAMGPVAKKEESLVAVALS
notes: as for B1
B3: Lxmdh (methanol dehydrogenase, Mdh, NAD-dependent) (Lysinibacillus xylanilyticus; K46E) (protein)
chain: MSDVLKQFVMPKTNLFGPGAIQEVGTRLNDLEVKKTLIVTDEGLHELGLSEQIANIITAAGIDVAIFPKAEPNPTDQNIEDGIAVYHAENCDSIVSLGGGSAHDAAKGIGLIASNGGRIHDYEGVDKSQNPLVPLIAINTTAGTASEMTRFTIITDTARKVKMAIVDKHVTPLLSINDPELMIGLPPALTAATGLDALTHAIESFVSTNATPITDACAEKVLQLVPEYLPRAYANGADLEAREQMVYAQFLAGMAFNNASLGYVHAIAHQLGGFYNLPHGVCNAILLPHVCRFNLTARTERFARIAELLGENVEALSKRDAAEKAIVAIENLSRDLNIPSGFRELGAKDEDIEILAKNAMLDVCAATNPRKATLEEIKQIITNAMGPVAKKEESLEAVALS
notes: as for B1
B4: Lxmdh (methanol dehydrogenase, Mdh, NAD-dependent) (Lysinibacillus xylanilyticus; K318N) (protein)
chain: MSDVLKQFVMPKTNLFGPGAIQEVGTRLNDLEVKKTLIVTDEGLHKLGLSEQIANIITAAGIDVAIFPKAEPNPTDQNIEDGIAVYHAENCDSIVSLGGGSAHDAAKGIGLIASNGGRIHDYEGVDKSQNPLVPLIAINTTAGTASEMTRFTIITDTARKVKMAIVDKHVTPLLSINDPELMIGLPPALTAATGLDALTHAIESFVSTNATPITDACAEKVLQLVPEYLPRAYANGADLEAREQMVYAQFLAGMAFNNASLGYVHAIAHQLGGFYNLPHGVCNAILLPHVCRFNLTARTERFARIAELLGENVEALSNRDAAEKAIVAIENLSRDLNIPSGFRELGAKDEDIEILAKNAMLDVCAATNPRKATLEEIKQIITNAMGPVAKKEESLEAVALS
notes: as for B1
B5: Lxmdh (methanol dehydrogenase, Mdh, NAD-dependent) (Lysinibacillus xylanilyticus; E396V/K318N) (protein)
chain: MSDVLKQFVMPKTNLFGPGAIQEVGTRLNDLEVKKTLIVTDEGLHKLGLSEQIANIITAAGIDVAIFPKAEPNPTDQNIEDGIAVYHAENCDSIVSLGGGSAHDAAKGIGLIASNGGRIHDYEGVDKSQNPLVPLIAINTTAGTASEMTRFTIITDTARKVKMAIVDKHVTPLLSINDPELMIGLPPALTAATGLDALTHAIESFVSTNATPITDACAEKVLQLVPEYLPRAYANGADLEAREQMVYAQFLAGMAFNNASLGYVHAIAHQLGGFYNLPHGVCNAILLPHVCRFNLTARTERFARIAELLGENVEALSNRDAAEKAIVAIENLSRDLNIPSGFRELGAKDEDIEILAKNAMLDVCAATNPRKATLEEIKQIITNAMGPVAKKEESLVAVALS
notes: as for B1

Substrate: CO
Experiment: HPLC of formaldehyde after O-benzylhydroxylamine derivatization; Michaelis-Menten nonlinear fit
Assay type: biochemical, Lysinibacillus xylanilyticus
Details: 3 mM NAD+, 5 mM Mg2+, 50 mM CHES pH 9.5, 55 °C, 10 min, 0-5 mM methanol
Excerpt: HPLC of formaldehyde after O-benzylhydroxylamine derivatization; Michaelis-Menten nonlinear fit on Lxmdh (methanol dehydrogenase, Mdh, NAD-dependent)

Row | Protein | Km [µM] | kcat [s⁻¹]
1 | B1 | 1311 ± 406 | 0.0333 ± 0.00333
2 | B2 | 10 ± 3 | 0.02 ± 0.00167
3 | B3 | 372 ± 231 | 0.0283 ± 0.00333
4 | B4 | 46 ± 72 | 0.0267 ± 0.005
5 | B5 | 233 ± 107 | 0.0217 ± 0.00167
